Experiment [1] has as its target human complement protein C4b (human) (UniProt P0C0L4). The experiment in a line: ELISA; C3b or C4b (1 µg) immobilised in microtiter wells in PBS pH 7.2; up to 1 µM His-tagged Lig protein in 2% BSA-PBS pH 7.2, 37°C, 1 h; detected with anti-His antibody; apparent Kd = concentration of LigB that gives half-maximal binding.
Experiment [2] addresses human complement protein C3b (human) (UniProt P01024). The experiment is described as above.
Experiment [3] addresses human complement protein C4b (human) (UniProt P0C0L4).
The target in experiment [4] is human complement protein C3b (human) (UniProt P01024). To be noted: scale: % of complement activity in untreated serum.
human complement protein C3b (human), sequence (P01024 23-667, chain 1 of 2): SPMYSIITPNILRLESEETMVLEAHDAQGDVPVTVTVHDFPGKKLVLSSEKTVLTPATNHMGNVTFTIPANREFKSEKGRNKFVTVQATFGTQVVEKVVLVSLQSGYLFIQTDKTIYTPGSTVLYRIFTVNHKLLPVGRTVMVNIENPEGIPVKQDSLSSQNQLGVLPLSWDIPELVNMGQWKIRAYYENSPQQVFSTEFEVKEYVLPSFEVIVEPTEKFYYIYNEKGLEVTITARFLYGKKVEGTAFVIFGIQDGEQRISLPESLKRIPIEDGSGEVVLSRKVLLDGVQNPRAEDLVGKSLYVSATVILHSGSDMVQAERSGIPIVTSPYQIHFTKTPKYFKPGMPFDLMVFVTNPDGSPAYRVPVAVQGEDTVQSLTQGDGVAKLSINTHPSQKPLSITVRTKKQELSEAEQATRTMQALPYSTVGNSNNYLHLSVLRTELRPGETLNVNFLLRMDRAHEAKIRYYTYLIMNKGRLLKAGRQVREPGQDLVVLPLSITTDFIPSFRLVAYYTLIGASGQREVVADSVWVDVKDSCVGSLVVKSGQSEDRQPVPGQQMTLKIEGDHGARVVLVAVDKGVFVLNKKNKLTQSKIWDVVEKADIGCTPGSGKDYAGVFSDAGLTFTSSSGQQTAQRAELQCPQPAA
human complement protein C3b (human), sequence (P01024 749-1663, chain 2 of 2): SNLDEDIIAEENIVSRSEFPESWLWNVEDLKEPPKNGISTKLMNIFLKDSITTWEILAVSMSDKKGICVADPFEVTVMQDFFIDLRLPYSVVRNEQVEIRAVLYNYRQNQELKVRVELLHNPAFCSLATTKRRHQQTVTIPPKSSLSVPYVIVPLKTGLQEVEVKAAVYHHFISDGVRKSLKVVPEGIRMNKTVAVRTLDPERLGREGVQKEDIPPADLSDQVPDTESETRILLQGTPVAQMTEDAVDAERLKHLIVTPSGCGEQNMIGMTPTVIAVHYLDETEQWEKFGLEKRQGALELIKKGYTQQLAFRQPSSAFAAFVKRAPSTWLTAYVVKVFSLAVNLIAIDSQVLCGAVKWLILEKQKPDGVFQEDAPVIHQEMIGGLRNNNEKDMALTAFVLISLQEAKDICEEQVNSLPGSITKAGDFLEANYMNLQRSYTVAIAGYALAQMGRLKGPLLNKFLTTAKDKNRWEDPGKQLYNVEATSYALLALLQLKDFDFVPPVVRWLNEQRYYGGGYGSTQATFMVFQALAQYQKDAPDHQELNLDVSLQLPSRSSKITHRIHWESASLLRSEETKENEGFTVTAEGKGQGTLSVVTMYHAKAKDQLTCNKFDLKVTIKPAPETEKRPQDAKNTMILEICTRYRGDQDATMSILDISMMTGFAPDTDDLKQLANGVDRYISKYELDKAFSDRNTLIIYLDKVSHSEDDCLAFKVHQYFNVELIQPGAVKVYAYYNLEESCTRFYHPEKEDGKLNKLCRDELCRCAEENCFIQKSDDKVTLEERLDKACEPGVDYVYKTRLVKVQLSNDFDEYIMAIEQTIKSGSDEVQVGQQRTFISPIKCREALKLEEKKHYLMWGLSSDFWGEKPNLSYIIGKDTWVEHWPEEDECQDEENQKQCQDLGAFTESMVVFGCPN

human complement protein C4b (human), sequence (P0C0L4 20-675, chain 1 of 3): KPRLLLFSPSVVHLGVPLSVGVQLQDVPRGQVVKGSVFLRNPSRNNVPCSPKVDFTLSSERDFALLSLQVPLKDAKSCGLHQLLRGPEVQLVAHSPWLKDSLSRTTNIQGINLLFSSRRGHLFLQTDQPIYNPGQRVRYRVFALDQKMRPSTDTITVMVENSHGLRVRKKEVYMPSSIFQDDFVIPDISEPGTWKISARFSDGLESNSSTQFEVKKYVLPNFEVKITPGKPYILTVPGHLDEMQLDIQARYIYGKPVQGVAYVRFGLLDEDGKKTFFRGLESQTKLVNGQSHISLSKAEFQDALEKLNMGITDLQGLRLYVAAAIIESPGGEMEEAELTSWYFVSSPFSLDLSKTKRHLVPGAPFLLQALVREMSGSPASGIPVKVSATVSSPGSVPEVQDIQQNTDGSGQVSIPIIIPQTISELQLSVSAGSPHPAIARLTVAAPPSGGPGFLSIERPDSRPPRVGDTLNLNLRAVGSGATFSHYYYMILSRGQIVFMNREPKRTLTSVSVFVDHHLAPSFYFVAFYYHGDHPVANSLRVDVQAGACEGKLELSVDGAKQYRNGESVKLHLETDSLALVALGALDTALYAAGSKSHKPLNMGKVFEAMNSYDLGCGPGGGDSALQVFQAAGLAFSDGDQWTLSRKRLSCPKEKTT
human complement protein C4b (human), sequence (P0C0L4 757-1446, chain 2 of 3): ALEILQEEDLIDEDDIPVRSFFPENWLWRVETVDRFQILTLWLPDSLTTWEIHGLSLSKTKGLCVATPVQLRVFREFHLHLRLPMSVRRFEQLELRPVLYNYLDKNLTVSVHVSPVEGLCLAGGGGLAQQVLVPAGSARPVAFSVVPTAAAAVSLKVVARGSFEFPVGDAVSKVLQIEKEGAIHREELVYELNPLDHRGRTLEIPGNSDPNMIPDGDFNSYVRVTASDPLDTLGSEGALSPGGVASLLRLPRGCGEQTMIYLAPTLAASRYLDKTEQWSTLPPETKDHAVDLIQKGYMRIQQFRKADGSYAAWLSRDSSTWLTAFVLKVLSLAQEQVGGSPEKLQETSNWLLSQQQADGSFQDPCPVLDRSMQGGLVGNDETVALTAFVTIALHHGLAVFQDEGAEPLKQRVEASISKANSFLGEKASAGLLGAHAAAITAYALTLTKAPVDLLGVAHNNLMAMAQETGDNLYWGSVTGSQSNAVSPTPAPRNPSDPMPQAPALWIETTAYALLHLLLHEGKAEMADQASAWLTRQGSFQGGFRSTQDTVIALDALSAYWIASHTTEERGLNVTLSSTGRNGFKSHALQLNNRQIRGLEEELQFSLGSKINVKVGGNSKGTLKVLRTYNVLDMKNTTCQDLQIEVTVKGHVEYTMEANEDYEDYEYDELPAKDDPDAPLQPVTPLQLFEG
human complement protein C4b (human), sequence (P0C0L4 1454-1744, chain 3 of 3): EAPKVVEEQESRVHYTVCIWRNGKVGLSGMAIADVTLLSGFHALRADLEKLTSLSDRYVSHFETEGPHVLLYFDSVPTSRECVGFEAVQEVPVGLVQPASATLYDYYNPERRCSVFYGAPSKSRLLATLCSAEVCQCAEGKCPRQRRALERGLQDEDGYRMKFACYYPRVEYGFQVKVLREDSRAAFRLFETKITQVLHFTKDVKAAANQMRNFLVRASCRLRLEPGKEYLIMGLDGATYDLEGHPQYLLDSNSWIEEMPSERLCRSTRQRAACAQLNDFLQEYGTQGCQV

With “LigB7′-12 (from UniProt C0J1Q6 1-1889) (domain or fragment)”, the Kd in experiment [1] turned out to be 69 nM; in experiment [2], 43 nM.
Turning to LigB8-12 (domain or fragment), the complement-mediated hemolysis of antibody-sensitized sheep erythrocytes (classical pathway) after preincubation of normal human serum with the protein, as % of untreated serum (% of untreated serum) in experiment [3] came out at 71.4. The substance also registered a complement-mediated hemolysis of rabbit erythrocytes (alternative pathway) after preincubation of normal human serum with the protein, as % of complement activity in untreated serum in experiment [4] of 38.9.
Take LigB9-11 (domain or fragment): the Kd in experiment [1] is 67 nM; in experiment [2], 69 nM. The complement-mediated hemolysis of antibody-sensitized sheep erythrocytes (classical pathway) after preincubation of normal human serum with the protein, as % of untreated serum (% of untreated serum) in experiment [3] worked out at 64. Moreover, the complement-mediated hemolysis of rabbit erythrocytes (alternative pathway) after preincubation of normal human serum with the protein, as % of complement activity in untreated serum in experiment [4] was determined as 57.8.
LigB9-12 (domain or fragment): the Kd in experiment [1] worked out at 57 nM; in experiment [2], 69 nM.

These data come from paper PMC3402383.
